Experimental findings from patent US20170335016A1 (Kyowa Kirin, published 2017) are described below.

Assay [1] deals with T1, human-CD40-Fc fusion protein (human, UniProt P25942 21-193).
T1 construct: also called human-CD4O-Fc fusion protein; not shown: Fc part; origin and limits not described
Briefly: ELISA, human-CD40-Fc coated at 1 µg/mL, culture supernatant, anti-human κ HRP detection. The protocol:
The human-CD4O-Fc fusion protein and the human-CD28-Fc fusion protein were adjusted to give a concentration of 1 μg/mL using coating buffer (50 mM carbonate buffer, pH 9). To a well, 50 μL/well of the obtained human-CD4O-Fc fusion prostein or the obtained human-CD28-Fc fusion protein was added into the Maxisorp Plate (manufactured by Nalge Nunc International) respectively, and incubated at 4° C. overnight to be immobilized. Then, 200 μL/well of blocking reagent (SuperBlock (registered trademark) Blocking Buffer, manufactured by Pierce Protein Research) was added to the well, followed by incubation at room temperature for 30 minutes for blocking. Then, 50 μL/well of the culture supernatant comprising each antibody obtained in above Examples was added to the well followed by incubation at room temperature for 1 hour. After washing three times with Washing buffer (0.1% Tween20-TBS), Affinity Isolated Antibody HRP Conjugated Goat F(ab)₂ anti-Human κ (manufactured by EY Laboratories Inc) was diluted with assay diluent (0.1% Tween20-TBS containing Block Ace manufactured by Dainippon Sumitomo Pharma Co. Ltd. by 10%). Then, 50 μL of the obtained solution was added to each well followed by incubation at a room temperature for 1 hour. […] The absorbance at the wavelength of 450 nm was measured with a microplate reader (SPECTRAMAX190, manufactured by Molecular Devices Inc).
On the technique in general: An ELISA detects its analyte on a solid surface through an enzyme-linked reagent.

Assay [2] deals with T2, human-CD28-Fc fusion protein (human, UniProt P10747 19-152).
T2 construct: also called Fc fusion protein of the human-CD28 extracellular domain with IgG; hECD28-Fc
T2 sequence (P10747 19-152): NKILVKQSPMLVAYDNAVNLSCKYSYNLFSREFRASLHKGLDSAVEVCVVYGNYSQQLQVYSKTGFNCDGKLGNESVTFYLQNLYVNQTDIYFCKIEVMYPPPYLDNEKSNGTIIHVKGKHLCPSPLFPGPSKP
In words: ELISA, human-CD28-Fc coated at 1 µg/mL, culture supernatant, anti-human κ HRP detection. The protocol:
The human-CD4O-Fc fusion protein and the human-CD28-Fc fusion protein were adjusted to give a concentration of 1 μg/mL using coating buffer (50 mM carbonate buffer, pH 9). To a well, 50 μL/well of the obtained human-CD4O-Fc fusion prostein or the obtained human-CD28-Fc fusion protein was added into the Maxisorp Plate (manufactured by Nalge Nunc International) respectively, and incubated at 4° C. overnight to be immobilized. Then, 200 μL/well of blocking reagent (SuperBlock (registered trademark) Blocking Buffer, manufactured by Pierce Protein Research) was added to the well, followed by incubation at room temperature for 30 minutes for blocking. Then, 50 μL/well of the culture supernatant comprising each antibody obtained in above Examples was added to the well followed by incubation at room temperature for 1 hour. After washing three times with Washing buffer (0.1% Tween20-TBS), Affinity Isolated Antibody HRP Conjugated Goat F(ab)₂ anti-Human κ (manufactured by EY Laboratories Inc) was diluted with assay diluent (0.1% Tween20-TBS containing Block Ace manufactured by Dainippon Sumitomo Pharma Co. Ltd. by 10%). Then, 50 μL of the obtained solution was added to each well followed by incubation at a room temperature for 1 hour. After washing three times with washing buffer, 50 μL of TMB (manufactured by Dako) coloring substrate solution was added to each well, followed by incubation in a dark room at room temperature. After developping color, 0.5 M vitriol (50 μL/well) was added to stop the reaction. The absorbance at the wavelength of 450 nm was measured with a microplate reader (SPECTRAMAX190, manufactured by Molecular Devices Inc).

Assay [3] deals with T2, human-CD28-Fc fusion protein. Briefly: phage ELISA, human-CD28-Fc coated at 2 µg/mL, anti-E tag HRP detection. As for the experimental part: Each single colony obtained from the antibody library to which the panning had been applied was seeded in 200 μL of 2×YTAG culture medium and subjected to a shaking culture at 30° C. for 4 to 5 hours. Then, 200 μL of 1×10¹⁰ pfu/mL M13KO helper phage was added to the culture solution for the infection (the shaking culture at 30° C. for 1 hour). After changing the culture medium to 2×YTAK, the shaking culture was carried out at 30° C. overnight. The binding property to the antigen was examined by the following steps (ELISA) using this culture supernatant as a phage solution.
The human-CD28-Fc fusion protein was diluted with Coating buffer (50 mM carbonate buffer, pH 9) to give a concentration of 2 μg/mL. The obtained solution was put into the Maxisorp Plate (manufactured by Nalge Nunc International) at 50 μL/well and incubated at 4° C. overnight to be immobilized. Then, to the well, 200 μL/well of blocking reagent (SuperBlock (registered trademark) Blocking Buffer, manufactured by Pierce Protein Research) was added, the resulting object was incubated at a room temperature for 30 minutes to complete the blocking. To the well, 50 μL/well of each phage solution was added, and incubated at a room temperature for 1 hour. […] The absorbance at the wavelength of 450 nm was measured with a microplate reader (SPECTRAMAX190, manufactured by Molecular Devices Inc).

T1 sequence (P25942 21-193 limits assumed): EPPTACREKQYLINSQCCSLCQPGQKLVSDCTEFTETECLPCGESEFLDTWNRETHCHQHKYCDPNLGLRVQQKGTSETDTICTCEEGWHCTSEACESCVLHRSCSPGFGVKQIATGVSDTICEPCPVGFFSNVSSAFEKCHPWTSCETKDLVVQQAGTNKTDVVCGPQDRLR

B1: anti-CD28 antibody 341VL34 (antibody, V domains shown)
VH: EVQLVESGGGLVKPGGSLRLSCGGSGFTFNNAWMNWVRQAPGKGLEWVGRIKGKTDGGTADYAAPVKGRFTISRDYSKNTLYLQMNSLTTEDTAVYYCNTDLPYYYGSGRYSGMDVWGQGTTVTVSS
VL: EIVLTQSPATLSLSPGERATLSCRASQSVSSYLAWYQQKPGQAPRLLIYDASNRATGIPARFSGSGSGTDFTLTISSLEPEDFAVYYCQQRSNTFGPGTKVDIK
notes: Made in the N5KG2Ser vector; Tested as culture supernatant; not shown: human immunoglobulin kappa light chain constant region
As to B1, the results for the binding result in assay [1] and in assay [2] were “no binding” and “binds”, respectively.

B2: anti-CD28 antibody 341VL36 (antibody, V domains shown)
VH: EVQLVESGGGLVKPGGSLRLSCGGSGFTFNNAWMNWVRQAPGKGLEWVGRIKGKTDGGTADYAAPVKGRFTISRDYSKNTLYLQMNSLKTEDTGVYYCTTYLPYYYGSERWSGMDVWGQGTTVTVSS
VL: EIVLTQSPATLSLSPGERATLSCRASQSVSSYLAWYQQKPGQAPRLLIYDASNRATGIPARFSGSGSGTDFTLTISSLEPEDFAVYYCQQRSNTFGPGTKVDIK
notes: as for B1
For the molecule B2, the figures for the binding result in assay [1] and in assay [2] were “no binding” and “binds”, respectively.

B3: 341VL34 scFv (scFv)
scFv: EVQLVESGGGLVKPGGSLRLSCGGSGFTFNNAWMNWVRQAPGKGLEWVGRIKGKTDGGTADYAAPVKGRFTISRDYSKNTLYLQMNSLTTEDTAVYYCNTDLPYYYGSGRYSGMDVWGQGTTVTVSSGGGGSGGRASGGGGSEIVLTQSPATLSLSPGERATLSCRASQSVSSYLAWYQQKPGQAPRLLIYDASNRATGIPARFSGSGSGTDFTLTISSLEPEDFAVYYCQQRSNTFGPGTKVDIK
notes: phage culture supernatant
For B3, the binding result in assay [3] is reported as “binds”.

B4: 341VL36 scFv (scFv)
scFv: EVQLVESGGGLVKPGGSLRLSCGGSGFTFNNAWMNWVRQAPGKGLEWVGRIKGKTDGGTADYAAPVKGRFTISRDYSKNTLYLQMNSLKTEDTGVYYCTTYLPYYYGSERWSGMDVWGQGTTVTVSSGGGGSGGRASGGGGSEIVLTQSPATLSLSPGERATLSCRASQSVSSYLAWYQQKPGQAPRLLIYDASNRATGIPARFSGSGSGTDFTLTISSLEPEDFAVYYCQQRSNTFGPGTKVDIK
notes: phage culture supernatant
Take B4: in assay [3], the binding result is listed as “binds”.
